According to the Human Domainome abundance scans (Beltran et al. 2025):
± gives the uncertainty stated by the source.

B1: Receptor-interacting serine/threonine-protein kinase 2, residues 438 to 518; numbered along this chain, O43353 (parent)
chain: QWIQSKREDIVNQMTEACLNQSLDALLSRDLIMKEDYELVSTKPTRTSKVRQLLDTTDIQGEEFAKVIVQKLKDNKQMGLQ

Variants of: B1
Experiment: abundance fitness (aPCA) (normalised: wild type 0, dead -1); higher = more abundant; growth selection in yeast, the domain comes from the species named
Settings: Homo sapiens

Variant	abundance fitness
QWIQSKREDIVNQMTEAMLNQSLDALLSRDLIMKEDYELVSTKPTRTSKVRQLLDTTDIQGEEFAKVIVQKLKDNKQMGLQ [C18M]	-0.264 ± 0.23
QWIQSKREDIVNQMTEAALNQSLDALLSRDLIMKEDYELVSTKPTRTSKVRQLLDTTDIQGEEFAKVIVQKLKDNKQMGLQ [C18A]	-0.151 ± 0.067
QWIQSKREDIVNQMTEAILNQSLDALLSRDLIMKEDYELVSTKPTRTSKVRQLLDTTDIQGEEFAKVIVQKLKDNKQMGLQ [C18I]	-0.384 ± 0.12
QWIQSKREDIVNQMTEAELNQSLDALLSRDLIMKEDYELVSTKPTRTSKVRQLLDTTDIQGEEFAKVIVQKLKDNKQMGLQ [C18E]	0.062 ± 0.095
QWIQSKREDIVNQMTEALLNQSLDALLSRDLIMKEDYELVSTKPTRTSKVRQLLDTTDIQGEEFAKVIVQKLKDNKQMGLQ [C18L]	-0.519 ± 0.072
QWIQSKREDIVNQMTEAGLNQSLDALLSRDLIMKEDYELVSTKPTRTSKVRQLLDTTDIQGEEFAKVIVQKLKDNKQMGLQ [C18G]	-0.425 ± 0.062
QWIQSKREDIVNQMTEAHLNQSLDALLSRDLIMKEDYELVSTKPTRTSKVRQLLDTTDIQGEEFAKVIVQKLKDNKQMGLQ [C18H]	-0.747 ± 0.2
QWIQSKREDIVNQMTEAFLNQSLDALLSRDLIMKEDYELVSTKPTRTSKVRQLLDTTDIQGEEFAKVIVQKLKDNKQMGLQ [C18F]	-0.375 ± 0.19
QWIQSKREDIVNQMTEADLNQSLDALLSRDLIMKEDYELVSTKPTRTSKVRQLLDTTDIQGEEFAKVIVQKLKDNKQMGLQ [C18D]	-0.796 ± 0.25
QWIQSKREDIVNMMTEACLNQSLDALLSRDLIMKEDYELVSTKPTRTSKVRQLLDTTDIQGEEFAKVIVQKLKDNKQMGLQ [Q13M]	-0.369 ± 0.48
QWIQSKREDIVNFMTEACLNQSLDALLSRDLIMKEDYELVSTKPTRTSKVRQLLDTTDIQGEEFAKVIVQKLKDNKQMGLQ [Q13F]	-0.314 ± 0.45
QWIQSKREDIVNAMTEACLNQSLDALLSRDLIMKEDYELVSTKPTRTSKVRQLLDTTDIQGEEFAKVIVQKLKDNKQMGLQ [Q13A]	0.032 ± 0.19
QWIQSKREDIVNSMTEACLNQSLDALLSRDLIMKEDYELVSTKPTRTSKVRQLLDTTDIQGEEFAKVIVQKLKDNKQMGLQ [Q13S]	0.072 ± 0.16
QWIQSKREDIVNVMTEACLNQSLDALLSRDLIMKEDYELVSTKPTRTSKVRQLLDTTDIQGEEFAKVIVQKLKDNKQMGLQ [Q13V]	-0.199 ± 0.23
QWIQSKREDIVNGMTEACLNQSLDALLSRDLIMKEDYELVSTKPTRTSKVRQLLDTTDIQGEEFAKVIVQKLKDNKQMGLQ [Q13G]	-0.365 ± 0.13
QWIQSKREDIVNRMTEACLNQSLDALLSRDLIMKEDYELVSTKPTRTSKVRQLLDTTDIQGEEFAKVIVQKLKDNKQMGLQ [Q13R]	-0.527 ± 0.18
QWIQSKREDIVNTMTEACLNQSLDALLSRDLIMKEDYELVSTKPTRTSKVRQLLDTTDIQGEEFAKVIVQKLKDNKQMGLQ [Q13T]	-0.19 ± 0.28

Variant	abundance fitness
QWIQSKREDIVNEMTEACLNQSLDALLSRDLIMKEDYELVSTKPTRTSKVRQLLDTTDIQGEEFAKVIVQKLKDNKQMGLQ [Q13E]	-0.027 ± 0.27
QWIQSKREDIVNLMTEACLNQSLDALLSRDLIMKEDYELVSTKPTRTSKVRQLLDTTDIQGEEFAKVIVQKLKDNKQMGLQ [Q13L]	-0.541 ± 0.16
QWIQSKREDIVNQMTSACLNQSLDALLSRDLIMKEDYELVSTKPTRTSKVRQLLDTTDIQGEEFAKVIVQKLKDNKQMGLQ [E16S]	-0.272 ± 0.061
QWIQSKREDIVNQMTDACLNQSLDALLSRDLIMKEDYELVSTKPTRTSKVRQLLDTTDIQGEEFAKVIVQKLKDNKQMGLQ [E16D]	0.014 ± 0.11
QWIQSKREDIVNQMTTACLNQSLDALLSRDLIMKEDYELVSTKPTRTSKVRQLLDTTDIQGEEFAKVIVQKLKDNKQMGLQ [E16T]	-0.193 ± 0.079
QWIQSKREDIVNQMTGACLNQSLDALLSRDLIMKEDYELVSTKPTRTSKVRQLLDTTDIQGEEFAKVIVQKLKDNKQMGLQ [E16G]	-0.858 ± 0.098
QWIQSKREDIVNQMTPACLNQSLDALLSRDLIMKEDYELVSTKPTRTSKVRQLLDTTDIQGEEFAKVIVQKLKDNKQMGLQ [E16P]	-0.539 ± 0.078
QWIQSKREDIVNQMTLACLNQSLDALLSRDLIMKEDYELVSTKPTRTSKVRQLLDTTDIQGEEFAKVIVQKLKDNKQMGLQ [E16L]	-0.288 ± 0.072
QWIQSKREDIVNQMTCACLNQSLDALLSRDLIMKEDYELVSTKPTRTSKVRQLLDTTDIQGEEFAKVIVQKLKDNKQMGLQ [E16C]	-0.853 ± 0.23
QWIQSKREDIVNQMTRACLNQSLDALLSRDLIMKEDYELVSTKPTRTSKVRQLLDTTDIQGEEFAKVIVQKLKDNKQMGLQ [E16R]	-0.793 ± 0.082
QWIQSKREDIVNQMTMACLNQSLDALLSRDLIMKEDYELVSTKPTRTSKVRQLLDTTDIQGEEFAKVIVQKLKDNKQMGLQ [E16M]	-0.186 ± 0.19
QWIQSKREDIVNQMTQACLNQSLDALLSRDLIMKEDYELVSTKPTRTSKVRQLLDTTDIQGEEFAKVIVQKLKDNKQMGLQ [E16Q]	-0.546 ± 0.12
QWIQSKREDIVNQMTIACLNQSLDALLSRDLIMKEDYELVSTKPTRTSKVRQLLDTTDIQGEEFAKVIVQKLKDNKQMGLQ [E16I]	-0.319 ± 0.11
QWIQSKREDIVNQMTKACLNQSLDALLSRDLIMKEDYELVSTKPTRTSKVRQLLDTTDIQGEEFAKVIVQKLKDNKQMGLQ [E16K]	-0.537 ± 0.14
QWIQSKREDIVNQMTYACLNQSLDALLSRDLIMKEDYELVSTKPTRTSKVRQLLDTTDIQGEEFAKVIVQKLKDNKQMGLQ [E16Y]	-0.576 ± 0.15
QWIQSKREDIVNQMTVACLNQSLDALLSRDLIMKEDYELVSTKPTRTSKVRQLLDTTDIQGEEFAKVIVQKLKDNKQMGLQ [E16V]	-0.289 ± 0.067
QWIQSKREDIVNQMTEECLNQSLDALLSRDLIMKEDYELVSTKPTRTSKVRQLLDTTDIQGEEFAKVIVQKLKDNKQMGLQ [A17E]	0.182 ± 0.11
